Assay in all cases: ubiquitin-AMC enzyme inhibition
One assay deals with USP7.
The target of another assay is T1, UCHL3 (UniProt P15374 1-230).
T1 chain: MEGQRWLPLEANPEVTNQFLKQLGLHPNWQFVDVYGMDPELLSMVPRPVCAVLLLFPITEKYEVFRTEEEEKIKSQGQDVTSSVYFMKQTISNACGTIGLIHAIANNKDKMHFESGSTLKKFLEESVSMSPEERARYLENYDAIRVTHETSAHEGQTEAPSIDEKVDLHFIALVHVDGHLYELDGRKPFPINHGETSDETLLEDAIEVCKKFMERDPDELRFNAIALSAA

For another assay, the target named is T2, USP5 (UniProt P45974 1-858).
T2 chain: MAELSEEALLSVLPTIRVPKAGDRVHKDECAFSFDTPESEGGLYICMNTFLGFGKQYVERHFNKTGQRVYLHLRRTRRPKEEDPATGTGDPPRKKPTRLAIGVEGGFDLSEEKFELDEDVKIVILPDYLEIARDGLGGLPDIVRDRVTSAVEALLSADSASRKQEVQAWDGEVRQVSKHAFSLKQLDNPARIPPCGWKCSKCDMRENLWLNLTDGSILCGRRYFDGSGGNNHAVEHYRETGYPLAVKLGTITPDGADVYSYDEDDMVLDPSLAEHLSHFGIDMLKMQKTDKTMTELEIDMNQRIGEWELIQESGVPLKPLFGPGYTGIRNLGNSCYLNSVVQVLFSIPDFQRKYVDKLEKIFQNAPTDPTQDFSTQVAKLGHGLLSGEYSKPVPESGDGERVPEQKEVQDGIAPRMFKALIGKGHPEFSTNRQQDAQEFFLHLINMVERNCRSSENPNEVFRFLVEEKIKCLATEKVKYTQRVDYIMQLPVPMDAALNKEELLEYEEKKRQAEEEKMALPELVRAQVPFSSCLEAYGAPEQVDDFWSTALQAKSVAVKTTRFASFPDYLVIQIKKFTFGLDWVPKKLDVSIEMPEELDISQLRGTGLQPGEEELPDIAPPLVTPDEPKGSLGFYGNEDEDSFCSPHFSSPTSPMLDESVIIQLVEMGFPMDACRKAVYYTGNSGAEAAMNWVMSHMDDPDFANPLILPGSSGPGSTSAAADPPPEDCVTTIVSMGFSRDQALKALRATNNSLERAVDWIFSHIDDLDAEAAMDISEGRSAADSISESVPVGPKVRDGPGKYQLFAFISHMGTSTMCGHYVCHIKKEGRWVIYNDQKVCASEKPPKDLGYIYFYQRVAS

Another assay deals with T3, USP2 (UniProt O75604 259-605).
T3 chain: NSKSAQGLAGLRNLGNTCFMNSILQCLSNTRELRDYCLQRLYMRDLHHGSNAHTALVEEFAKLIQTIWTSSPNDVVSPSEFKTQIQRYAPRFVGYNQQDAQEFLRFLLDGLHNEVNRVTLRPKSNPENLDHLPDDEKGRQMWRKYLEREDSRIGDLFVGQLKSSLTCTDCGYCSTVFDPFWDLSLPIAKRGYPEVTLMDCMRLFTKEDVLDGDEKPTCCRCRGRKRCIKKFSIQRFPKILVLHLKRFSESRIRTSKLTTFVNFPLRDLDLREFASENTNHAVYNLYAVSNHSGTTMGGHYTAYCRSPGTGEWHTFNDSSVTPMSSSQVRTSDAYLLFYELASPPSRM

In assay [1] the target is T4, USP30 (active enzyme in the ubiquitin-AMC assay) (UniProt Q70CQ3 57-517).
T4 chain: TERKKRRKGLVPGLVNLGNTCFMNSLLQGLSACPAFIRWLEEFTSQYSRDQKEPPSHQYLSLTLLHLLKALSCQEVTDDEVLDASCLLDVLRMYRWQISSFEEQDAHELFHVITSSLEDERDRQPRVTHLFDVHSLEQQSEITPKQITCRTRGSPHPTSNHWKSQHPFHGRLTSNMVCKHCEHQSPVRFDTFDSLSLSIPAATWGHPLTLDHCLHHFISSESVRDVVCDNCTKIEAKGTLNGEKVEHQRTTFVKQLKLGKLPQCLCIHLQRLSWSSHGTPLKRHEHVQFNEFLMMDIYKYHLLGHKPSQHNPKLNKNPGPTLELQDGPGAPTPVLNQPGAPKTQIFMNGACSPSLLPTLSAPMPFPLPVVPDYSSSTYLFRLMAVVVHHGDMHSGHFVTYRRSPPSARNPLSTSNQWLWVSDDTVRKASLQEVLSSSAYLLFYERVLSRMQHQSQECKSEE

Consider VSRCYIFWNEMFCDVE [pep8], for which the IC50 (usually the concentration needed to halve the response being measured) with USP7 is 31.7 µM.

For the molecule VSRCYIFWNEMFCDVE [peptide USP30-8], the IC50 in the assay with UCHL3 was 194 µM; with USP5, 42.9 µM; with USP2, around 200 µM; in assay [1], 121 µM.

The values above are taken from patent US20150344888A1 (published 2015).
